Test results from article PMC6635533.
Where “and” joins values, the source holds several entries; their conditions need not be identical. Equal entries are not always repeated.

Tests used:
[1] = molecular target: RocAM3 with a C-terminal FLAG tag (amino acids 1 to 416), expressed in GAS M18 strain H566 (strain M3_F) (Streptococcus pyogenes (group A Streptococcus), serotype M3 strain 188); test: cross-linking; live GAS M18 strains treated with 1% formaldehyde (10 min, room temperature), quenched with 250 mM glycine; protoplast preparations, SDS-PAGE, anti-FLAG blot
[2] = molecular target: RocA_(FLAG) expressed from a single chromosomal copy in GAS M1 strain 854 (strain 854_chF) (Streptococcus pyogenes (group A Streptococcus), serotype M1 strain 854); test: cross-linking; formaldehyde cross-linking with GAS M1 strain 854_chF (native expression level); RocA_(FLAG) affinity purified from the protoplast lysate for detection by anti-FLAG blot
[3] = molecular target: RocA cytoplasmic domain (amino acids 226 to 451) with a C-terminal FLAG tag, expressed in GAS M18 strain H566 (strain CYT_F) (Streptococcus pyogenes (group A Streptococcus), serotype M1 strain 854); test: cross-linking; live GAS M18 strains treated with 1% formaldehyde (10 min, room temperature), quenched with 250 mM glycine; protoplast preparations, SDS-PAGE, anti-FLAG blot
[4] = molecular target: RocAM1 with a C-terminal FLAG tag, full length (amino acids 1 to 451), expressed in GAS M18 strain H566 (strain M1_F) (Streptococcus pyogenes (group A Streptococcus), serotype M1 strain 854); test: as above

With “RocAM3 with a C-terminal FLAG tag (amino acids 1 to 416), expressed in GAS M18 strain H566 (strain M3_F) (natural protein)” as the substance, how does the stoichiometry N [1] read?
The stoichiometry N was 2.

Which stoichiometry N [2] does the source give for “RocA_(FLAG) expressed from a single chromosomal copy in GAS M1 strain 854 (strain 854_chF) (natural protein)” here?
Its stoichiometry N is 2.

“RocA cytoplasmic domain (amino acids 226 to 451) with a C-terminal FLAG tag, expressed in GAS M18 strain H566 (strain CYT_F) (domain or fragment)” was tested. Which stoichiometry N [3] did it give?
The stoichiometry N was 2.

For “RocAM1 with a C-terminal FLAG tag, full length (amino acids 1 to 451), expressed in GAS M18 strain H566 (strain M1_F) (natural protein)”, which stoichiometry N [4] is on record?
Its stoichiometry N is 2 and 4.
